The record followed here is publication PMC10901363 (Science Advances, 2024).

One data set has as its target mini PTPN21-EGFP (UniProt Q16825). Briefly: MST.
Data set [1] has as its target T1, PTPN21 FERM domain (FERM^PTPN21) (Homo sapiens, UniProt Q16825).
T1 construct: FERM domain, residues 21 to 319 (18 to 319 stated for the crystal); E. coli Rosetta (DE3), His-sumo tag removed; C-terminal EGFP fusion for MST; Flag-tagged for PIP-strips; monomer
T1 sequence (Q16825 21-319): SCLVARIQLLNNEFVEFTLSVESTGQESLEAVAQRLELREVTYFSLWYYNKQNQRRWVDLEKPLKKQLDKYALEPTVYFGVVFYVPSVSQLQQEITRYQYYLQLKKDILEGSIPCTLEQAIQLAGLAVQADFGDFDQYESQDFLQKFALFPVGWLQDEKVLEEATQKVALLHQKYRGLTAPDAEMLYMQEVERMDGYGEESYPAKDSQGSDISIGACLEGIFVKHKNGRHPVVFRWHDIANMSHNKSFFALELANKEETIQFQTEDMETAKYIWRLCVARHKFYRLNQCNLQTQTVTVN
Briefly: microscale thermophoresis (FERM-EGFP). It is filed as binding.

The target in another data set is T2, PTPN21 FERM-EGFP (UniProt Q16825 21-319).
T2 chain: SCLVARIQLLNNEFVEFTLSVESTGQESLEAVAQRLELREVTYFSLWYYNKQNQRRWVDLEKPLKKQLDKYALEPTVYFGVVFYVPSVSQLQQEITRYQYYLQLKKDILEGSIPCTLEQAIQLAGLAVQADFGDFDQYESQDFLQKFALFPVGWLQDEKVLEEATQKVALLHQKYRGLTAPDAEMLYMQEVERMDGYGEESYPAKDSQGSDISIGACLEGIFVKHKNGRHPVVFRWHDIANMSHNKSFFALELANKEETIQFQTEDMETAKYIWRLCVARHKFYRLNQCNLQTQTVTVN
Briefly: MST.

Substrate in data set [2]: Cc1cc(=O)oc2c(F)c(OP(=O)(O)O)c(F)cc12
Briefly: fluorescent phosphatase assay, Michaelis-Menten. It is filed as biochemical, Homo sapiens. As to conditions: 50 mM Hepes pH 7.0, 150 mM NaCl, 1 mM EDTA, 2 mM DTT, RT.

Where “and” joins values, the source holds several entries; their conditions need not be identical. Identical values can stand only once.

“HPV18 E7 CR3 domain (from UniProt P06788 54-105) (domain or fragment)” gave a Kd with mini PTPN21-EGFP of 49 nM. For the molecule `O=P(O)(O)O[C@@H]1[C@@H](O)[C@H](OP(=O)(O)O)[C@H](O)[C@H](O)[C@H]1O` [ins(1,5)P2], the Kd in data set [1] was roughly 1320 nM. The same measure, in the same setting: as for `O=P(O)(O)O[C@@H]1[C@H](O)[C@H](OP(=O)(O)O)[C@@H](O)[C@H](O)[C@H]1O` [ins(1,3)P2], the figure is roughly 6110 nM.

The molecule “HPV18 E7 protein, full length (from UniProt P06788 1-105) (natural protein)” displayed a Kd in the data set with mini PTPN21-EGFP of 200 nM.

B1: PTPN21 PTP domain (residues 872 to 1174) (domain or fragment)
chain: KEVATRATNDERCKILEQRLEQGMVFTEYERILKKRLVDGECSTARLPENAERNRFQDVLPYDDVRVELVPTKENNTGYINASHIKVSVSGIEWDYIATQGPLQNTCQDFWQMVWEQGIAIIAMVTAEEEGGREKSFRYWPRLGSRHNTVTYGRFKITTRFRTDSGCYATTGLKMKHLLTGQERTVWHLQYTDWPEHGCPEDLKGFLSYLEEIQSVRRHTNSTSDPQSPNPPLLVHCSAGVGRTGVVILSEIMIACLEHNEVLDIPRVLDMLRQQRMMLVQTLCQYTFVYRVLIQFLKSSRLI
For the molecule B1, in the data set with PTPN21 FERM-EGFP, the Kd was 2310 nM and 3480 nM and 1610 nM. For the same molecule, in data set [2], the Km was 28.6 µM and the kcat came to 1.2 s⁻¹.
